The record followed here is patent publication US11884710B2, “Peptide compounds and methods of use in wound healing” (priority 2013, dated 2024).

The test system of assay [1] is P. aeruginosa (ATCC 27853). Nature of the assay: Mouse model of Pseudomonas (bacterial) keratitis. The format is in vivo. Conditions: 48 hours post-infection. On the procedure:
A circular wound was created on the mouse cornea by removing the epithelium and infected with 10^5 colony forming units (CFU) of P. aeruginosa (ATCC® 27853™ (American Type Culture Collection, Manassas, Va.)). Infected wounds were treated with saline (0.9% sodium chloride, vehicle control) or saline containing indicated concentrations of peptide every 15 minutes for 2 hours, then every 30 minutes for 3 hours on the first day. Infected wounds were treated twice on the second day and once on the third day. Mice were killed at 48 hours post-infection, and CFU/eye were quantified. The means were plotted and are representative of 5 to 9 mice per group. Mann Whitney test was performed for each group as compared to the saline control group. *P=0.014. In compound names such as BCC02-5RMP used herein, “R” represents arginine, and “MP” represents a small PEG molecule as defined elsewhere herein (such as, for example but not by way of limitation, “AEEP”).
(§1) A circular wound was created on the mouse cornea by removing the epithelium, and the wound was infected with 10^5 CFU of P. aeruginosa (ATCC® 27853™ (American Type Culture Collection, Manassas, Va.)). Infected wounds were treated with saline or saline containing indicated concentrations (2, 5, 10, and 20 mg/ml) of peptide every 30 minutes for 6 hours on the first day. Infected wounds were treated twice on the second day and once on the third day. Mice were killed at 48 hours post-infection, and the CFU/eye were quantified. The means are plotted and are representative of 5 mice per group. Mann Whitney test was performed for each group as compared to the saline control group. *P=0.015 and **P=0.097.
as §1, with “representative of 4 to 5 mice” for “representative of 5 mice”, “control group.” for “control group. *P=0.015 and **P=0.097.”
as §1, with “group. **P=0.0079 by” for “group.”, “test” for “test was performed for each group”, “group.” for “group. *P=0.015 and **P=0.097.”
A circular wound (2 mm) was created on the mouse cornea by removing the epithelium and infecting the wound with 10^5 CFU of P. aeruginosa (ATCC® 27853™ (American Type Culture Collection, Manassas, Va.)). Infected wounds were treated with saline or saline containing indicated concentrations of peptide every 15 minutes for 2 hours, then every 30 minutes for 3 hours on the first day. […] Mice were killed at 48 hours post-infection, and the colony forming units per eye (CFU/eye) were quantified. […]

Assay [2] has as its system HCEC monolayers. Nature of the assay: In vitro scratch assay of HCEC monolayers. Type of assay: cell-based, human. How it is done:
(A) HCECs were grown to confluency and scratched using a 10 μl pipette tip. Scratched HCEC monolayers were treated with HB-EGF (250 ng/ml) or rCAP37 (25-2000 ng/ml), or were left untreated in basal Keratinocyte Serum Free Medium (KSFM). Wound closure was monitored at 0, 18, 24, and 48 hours utilizing a camera-equipped inverted microscope. The histogram represents data acquired at 48 hours, and the values are the mean±SEM of the percentage of wound closure. The data are representative of at least 4 independent experiments. The percentage of wound closure in treated monolayers was compared to untreated controls by one-way analysis of variance (ANOVA) followed by Dunnett's multiple comparison test, **P<0.01, *P<0.05. (B) Representative images of scratched monolayers treated with buffer control, HB-EGF, and rCAP37 (at 25, 100, and 250 ng/ml) are shown for each time point. Images were taken at 20× objective.
In vitro model of wound healing: An in vitro scratch assay was used in order to determine the ability of rCAP37 to facilitate corneal wound healing. Human corneal epithelial cells were cultured as described above until they reached a confluent monolayer. Each monolayer was scratched using a 10 μl pipette tip to create two perpendicular lines. Monolayers were treated with heparin binding-epidermal growth factor (HB-EGF, 250 ng/ml; Becton Dickinson), rCAP37 (25-2000 ng/ml), or basal KSFM (Gibco). Wound closure was monitored at 0, 18, 24, and 48 hours utilizing a camera-equipped inverted microscope (TE2000-E; Nikon, Melville, N.Y.). Time-lapse images of in vitro wound closure were obtained using a camera-equipped inverted microscope (TE2000-E; Nikon) from […]. HCEC monolayers were treated with HB-EGF, rCAP37, and basal KSFM as described above. The width of each scratch was quantitated using ImageJ software (US National Institutes of Health, Bethesda, Md.). Results are presented as the percentage of wound closure.

Regarding “GTRCQVAGWGSWHSGGRLSRFPRFVNV (derivative of peptide of CAP37 protein) [Peptide 120-146WH]”, the “CFU/eye vs saline, in words” value in assay [1] (topical doses of 10 and 20 mg/ml) is on record as “significantly reduced the CFU/eye”.
For “GTRCQVAGWGSWRSGGRLSRFPRFVNV (derivative of peptide of Homo sapiens CAP37 protein) [Peptide 120-146WR]”, the “infection (CFU/eye) vs saline, in words” value in assay [1] (topical 5, 10, and 20 mg/ml) is “significantly reduced infection”.

B1: CAP37: cationic antimicrobial protein of Mr 37 kDa; recombinant CAP37 produced in human embryonic kidney (HEK) 293 cells (protein)
chain: IVGGRKARPRQFPFLASIQNQGRHFCGGALIHARFVMTAASCFQSQNPGVSTVVLGAYDLRRRERQSRQTFSISSMSENGYDPQQNLNDLMLLQLDREANLTSSVTILPLPLQNATVEAGTRCQVAGWGSQRSGGRLSRFPRFVNVTVTPEDQCRPNNVCTGVLTRRGGICNGDGGTPLVCEGLAHGVASFSLGPCGRGPDFFTRVALFRDWIDGVLNNPGP
In the case of B1, the percentage wound closure in assay [2] (CAP37 250 ng/ml, at 18 hours) is on record as approximately 71%; in assay [2] (CAP37 500 ng/ml) it was “approximately 62%”. Further, the “time to complete closure of scratch wounds” value in assay [2] (HB-EGF 250 ng/ml, CAP37 250 ng/ml) fell in the range of 24 to 48 h.
